Experimental data published in patent US20170088624A1 (Janssen / Centocor, published 2017).
Residue numbers refer to the chain shown, from its start.

Tests used:
[1] = molecular target: T1, Full length human CD40 (huCD40) on cells (human, UniProt P25942 21-277); assay: cell-based or functional assay
Target sequence in this assay (P25942 21-277): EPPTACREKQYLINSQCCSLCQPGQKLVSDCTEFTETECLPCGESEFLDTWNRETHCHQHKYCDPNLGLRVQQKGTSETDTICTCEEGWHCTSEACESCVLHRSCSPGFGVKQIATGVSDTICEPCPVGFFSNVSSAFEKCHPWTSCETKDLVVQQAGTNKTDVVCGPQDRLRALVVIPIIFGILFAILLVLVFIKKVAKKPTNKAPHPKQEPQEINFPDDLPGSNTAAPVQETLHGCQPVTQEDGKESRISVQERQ

[2] = molecular target: T1, Full length human CD40 (huCD40) on cells; assay: flow cytometry, human B cells; separate experiment
Target sequence in this assay (P25942 21-277): as above

[3] = molecular target: T1, Full length human CD40 (huCD40) on cells; assay: flow cytometry, human DCs; separate experiment
Target sequence in this assay (P25942 21-277): as above

[4] = molecular target: T1, Full length human CD40 (huCD40) on cells; assay: flow cytometry, HEK-Blue CD40L cells; separate experiment
Target sequence in this assay (P25942 21-277): as above

[5] = molecular target: T1, Full length human CD40 (huCD40) on cells; assay: flow cytometry, human DCs
Target sequence in this assay (P25942 21-277): as above

[6] = molecular target: T1, Full length human CD40 (huCD40) on cells; assay: flow cytometry, HEK-Blue CD40L cells
Target sequence in this assay (P25942 21-277): as above

[7] = molecular target: T1, Full length human CD40 (huCD40) on cells; assay: flow cytometry, human B cells
[8] = molecular target: T1, Full length human CD40 (huCD40) on cells; assay: flow cytometry, Raji cells
[9] = molecular target: T1, Full length human CD40 (huCD40) on cells; assay: cell-based or functional assay; remark: listed apart in the source
[10] = molecular target: T2, Macaca fascicularis (cyno) CD40 (cCD40) on cells (Macaca fascicularis (cynomolgus), UniProt P25942 21-277 (human entry)); assay: flow cytometry, cyno mature DCs
T2 construct: CD40 on cyno mature DCs
T2 chain: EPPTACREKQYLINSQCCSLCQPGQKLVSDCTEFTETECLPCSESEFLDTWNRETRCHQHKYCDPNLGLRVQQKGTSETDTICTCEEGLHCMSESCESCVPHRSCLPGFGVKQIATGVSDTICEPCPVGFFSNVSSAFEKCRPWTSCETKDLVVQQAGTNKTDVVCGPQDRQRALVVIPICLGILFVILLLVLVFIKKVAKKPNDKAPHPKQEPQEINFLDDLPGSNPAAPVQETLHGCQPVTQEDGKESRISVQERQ
Protocol: (§1) Human monocytes were isolated from either frozen/fresh PBMC using CD14 negative isolation kit per manufacturer's protocol (MACS Miltenyi). Cyno monocytes were isolated from fresh PBMC using CD14 positive isolation kit per manufacturer's protocol (MACS Miltenyi). To generate DCs, monocytes were cultured for 5 days in complete media RPMI (Invitrogen) in the presence of 100 ng/ml human GM-CSF and human IL-4 (Peprotech) and media was replenished every 2 days. On day 5, DCs were stimulated with 100 ng/ml LPS (Sigma) for 24 hours. Cells were then stained with each of the tested CD40 antibody at different concentration in flow cytometry buffer (PBS+1% FBS; BD Bioscience) in 100 μl volume for 30 minutes on ice followed with two washes with flow buffer. Cells were then stained for additional 30 minutes on ice with APC-conjugated anti human IgG (Jackson ImmunoResearch) at the recommended dilution 1:100 and washed twice with flow buffer. Cells were analyzed for percent positive and Mean Fluorescence Intensity (MFI) to determine the antibody binding using Fortessa (BD Bioscience).
(§2) The experiments were conducted using assays described above. 20 antibodies were characterized further based on their binding to human DCs, cyno DCs, Raji cells and HEK-Blue™ CD40L cells.

human CD40 (SPR analyte) [11] = molecular target: T3, human CD40 (SPR analyte) (human, UniProt P25942 21-193); assay: SPR ProteOn XPR36, mAb captured, CD40 as analyte, 25 C; upper end of the range of n = 2
T3 construct: also called huCD40-ECD
Protocol: (§3) Affinity measurements were performed using Surface Plasmon Resonance (SPR) using a ProteOn XPR36 system (BioRad). […] Approximately 5000 RU (response units) of mAbs were immobilized. The kinetic experiments were performed at 25° C. in running buffer (DPBS+0.01% P20+100 μg/ml BSA). To perform kinetic experiments, 200 RU of mAbs were captured followed by injections of analytes (human or cyno CD40) at 5 concentrations (in a 4-fold serial dilution). The association phase was monitored for 3 minutes at 50 μL/min, then followed by 15 minutes of buffer flow (dissociation phase). The chip surface was regenerated with two 18 second pulses of 100 mM H₃PO₄ (Sigma, Cat#7961) at 100 μL/min.
(§4) The collected data were processed using ProteOn Manager software. First, the data was corrected for background using inter-spots. Then, double reference subtraction of the data was performed by using the buffer injection for analyte injections. The kinetic analysis of the data was performed using a Langmuir 1:1 binding model. The result for each mAb was reported in the format of Ka (On-rate), Kd (Off-rate) and KD (equilibrium dissociation constant).
(§5) The parameters reported in this table were obtained from a 1:1 Langmuir binding model for all samples. Affinity, KD=kd/ka.

[12] = molecular target: T1, Full length human CD40 (huCD40) on cells; assay: flow cytometry, HEK-Blue CD40L cells; remark: listed apart in the source
human CD40 (SPR analyte) [13] = molecular target: T3, human CD40 (SPR analyte); assay: SPR ProteOn XPR36, mAb captured, CD40 as analyte, 25 C; lower end of the range of n = 2
Protocol: as §3, §4, §5

human CD40 (SPR analyte) [14] = molecular target: T3, human CD40 (SPR analyte); assay: SPR ProteOn XPR36, mAb captured, CD40 as analyte, 25 C; upper end of the range of n = 2; upper end of the range of the n = 2 replicates
Protocol: as §3, §4, §5

cyno CD40 (SPR analyte) = molecular target: T4, cyno CD40 (SPR analyte) (Macaca fascicularis (cynomolgus), UniProt P25942 21-193 (human entry), limits assumed); assay: SPR ProteOn XPR36, mAb captured, cyno CD40 as analyte, 25 C; did not fit well to 1:1 model
T4 construct: also called cCD40-ECD
T4 chain: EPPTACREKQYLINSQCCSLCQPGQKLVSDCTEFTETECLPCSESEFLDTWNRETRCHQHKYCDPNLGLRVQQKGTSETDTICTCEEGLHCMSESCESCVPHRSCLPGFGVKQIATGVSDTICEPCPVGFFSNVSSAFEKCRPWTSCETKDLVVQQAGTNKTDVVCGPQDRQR
Protocol: as §3, §4, §5

[15] = molecular target: T1, Full length human CD40 (huCD40) on cells; assay: cell-based or functional assay; remark: listed apart in the source
human CD40 (SPR analyte) [16] = molecular target: T3, human CD40 (SPR analyte); assay: SPR ProteOn XPR36, mAb captured, CD40 as analyte, 25 C; lower end of the range of n = 2; lower end of the range of the n = 2 replicates
Protocol: as §3, §4, §5

human CD40 (SPR analyte) [17] = molecular target: T3, human CD40 (SPR analyte); assay: SPR ProteOn XPR36, mAb captured, CD40 as analyte, 25 C; average of n = 2; did not fit well to 1:1 model
Protocol: as §3, §4, §5

[18] = molecular target: T1, Full length human CD40 (huCD40) on cells; assay: flow cytometry, human mature DCs
Protocol: as §1, §2

B1: C40M121 (antibody, human IgG1, lambda, V domains shown)
VH: QLQLQESGPGLVKPSETLSLTCTVSGGSISSSSYYWGWIRQPPGKGLEWIGNIYYRGDTYYSPSLKSRVTISVDTSKNQFSLKLSSVTAADTAVYYCAKGFRFDYWGQGTLVTVSS
VL: QSALTQPPSASGSPGQSVTISCTGTSSDVGGYNYVSWYQQHPGKAPKLMIYEVSKRPSGVPDRFSGSKSGNTASLTVSGLQAEDEADYYCSSYAGSNNLVFGGGTKLTVLG
Q: With B1 as the binder, how does the “EC50, Human B cells (CD83), separate experiment” value [1] read?
A: The value was 0.334 ng/mL.

Q: What about the “EC50, Human DC (HLA-DR), separate experiment” value [1] of the same binder?
A: The value was 0.0185 µg/mL.

Q: And the “EC50, agonistic activity on HEK-Blue™ CD40L cells (NF-κB/SEAP), separate experiment” value [1]?
A: The value was 6.33 ng/mL.

Q: And the EC50 [2]?
A: Its EC50 is 0.0228 µg/mL.

Q: What about the EC50 [3] of the same binder?
A: The EC50 was 0.0572 µg/mL.

Q: And the EC50 [4]?
A: The EC50 was 0.464 µg/mL.

B2: C40M105 (antibody, human IgG1, lambda, V domains shown)
VH: B1 VH with K99R
VL: B1 VL
Q: Which “EC50, Human B cells (CD83)” value [1] does the source give for B2 here?
A: Its value is 2.82 ng/mL.

Q: And the “EC50, Human DC (HLA-DR)” value [1]?
A: The value was 2.97 µg/mL.

Q: And the “EC50, agonistic activity on HEK-Blue™ CD40L cells (NF-κB/SEAP)” value [1]?
A: Its value is 0.0173 µg/mL.

Q: What about the EC50 [5] of the same binder?
A: The EC50 was 5.76 µg/mL.

Q: And the EC50 [6]?
A: The EC50 was 2.16 µg/mL.

Q: And the EC50 [7]?
A: The EC50 was 6.65 µg/mL.

B3: C40M55 (antibody, human IgG1, kappa, V domains shown)
VH: QVQLVQSGAEVKKPGSSVKVSCKASGGTFSSYAISWVRQAPGQGLEWMGGIIPIFGTANYAQKFQGRVTITADESTSTAYMELSSLRSEDTAVYYCARDGYRRYGIGRYGFDYWGQGTLVTVSS
VL: not shown
notes: Full-length IgG1/kappa; from phage display
Q: B3 was tested. Which EC50 [8] did it give?
A: Its EC50 is 0.0461 µg/mL.

Q: What about the “DC EC50, CD80 surface expression, with cross-linker” value [9] of the same binder?
A: The value was 0.0616 µg/mL.

Q: And the “DC EC50, CD83 surface expression, with cross-linker” value [9]?
A: The value was 0.103 µg/mL.

Q: And the “DC EC50, CD86 surface expression, with cross-linker” value [9]?
A: Its value is 0.198 µg/mL.

Q: And the “DC EC50, HLA-DR surface expression, with cross-linker” value [9]?
A: The value was 0.0811 µg/mL.

Q: And the EC50 [10]?
A: Its EC50 is 0.0218 µg/mL.

Q: What about the Kd (human CD40 (SPR analyte) [11]) of the same binder?
A: Its Kd is 2.17 nM.

Q: And the EC50 [12]?
A: The EC50 was 0.0631 µg/mL.

Q: And the Kd (human CD40 (SPR analyte) [13])?
A: Its Kd is 2.12 nM.

Q: And the koff (human CD40 (SPR analyte) [14])?
A: The koff was 0.00217 s⁻¹.

Q: What about the kon (human CD40 (SPR analyte) [14]) of the same binder?
A: Its kon is 1.02e+06 M⁻¹ s⁻¹.

Q: And the Kd (cyno CD40 (SPR analyte))?
A: Its Kd is 2.59 nM.

Q: What about the koff (cyno CD40 (SPR analyte)) of the same binder?
A: Its koff is 0.00215 s⁻¹.

Q: What about the kon (cyno CD40 (SPR analyte)) of the same binder?
A: The kon was 831000 M⁻¹ s⁻¹.

Q: What about the “B cells EC50, CD23 surface expression, with cross-linker” value [15] of the same binder?
A: Its value is 0.0616 µg/mL.

Q: And the “B cells EC50, CD80 surface expression, with cross-linker” value [15]?
A: The value was 1.43 ng/mL.

Q: And the “B cells EC50, CD83 surface expression, with cross-linker” value [15]?
A: Its value is 1.25 ng/mL.

Q: What about the “B cells EC50, CD86 surface expression, with cross-linker” value [15] of the same binder?
A: Its value is 0.646 ng/mL.

Q: What about the “B cells EC50, HLA-DR surface expression, with cross-linker” value [15] of the same binder?
A: Its value is 0.437 ng/mL.

Q: What about the koff (human CD40 (SPR analyte) [16]) of the same binder?
A: The koff was 0.00188 s⁻¹.

Q: And the kon (human CD40 (SPR analyte) [16])?
A: The kon was 868000 M⁻¹ s⁻¹.

Q: What about the Kd (human CD40 (SPR analyte) [17]) of the same binder?
A: The Kd was 2.15 nM.

Q: And the koff (human CD40 (SPR analyte) [17])?
A: Its koff is 0.00203 s⁻¹.

Q: What about the kon (human CD40 (SPR analyte) [17]) of the same binder?
A: The kon was 944000 M⁻¹ s⁻¹.

Q: And the EC50 [18]?
A: The EC50 was 0.102 µg/mL.
